B1: Homolog_E5: RecE, Providencia stuartii; SEQ ID NO: 124 (protein, listed as Providencia stuartii)
chain: EGIYYNISNEDYHNGLGISKSQLDLINEMPAEYIWSKEAPVDEEKIKPLEIGTALHCLLLEPDEYHKRYKIGPDVNRRTNAGKEKEKEFFDMCEKEGITPITHDDNRKLMIMRDSALAHPIAKWCLEADGVSESSIYWTDKETDVLCRCRPDRIITAHNYIVDVKSSGDIEKFDYEYYNYRYHVQDAFYSDGYKEVTGITPTFLFLVVSTKIDCGKYPVRTYVMSEEAKSAGRTAYKHNLLTYAECLKTDEWAGIRTLSLPRWAKELRNE
B2: Homolog_E6: RecE, Providencia sp. MGF014; SEQ ID NO: 126 (protein, listed as Providencia sp.)
chain: MKEGIYYNISNEDYHNGLGISKSQLDLINEMPAEYIWSKEAPVDEEKIKPLEIGTALHCLLLEPDEYHKRYKIGPDVNRRTNVGKEKEKEFFDMCEKEGITPITHDDNRKLMIMRDSALAHPIAKWCLEADGVSESSIYWTDKETDVLCRCRPDRIITAHNYIIDVKSSGDIEKFDYEYYNYRYHVQDAFYSDGYKEVTGITPTFLFLVVSTKIDCGKYPVRTYVMSEEAKSAGRTAYKHNLLTYAECLKTDEWAGIRTLSLPRWAKELRNE
B3: Homolog_E9: RecE, Bacillus sp. MUM 116; SEQ ID NO: 130 (protein, listed as Bacillus sp.)
chain: MTYAADETLVQLLLSVDGKQLLLGRGLKKGKAQYYINEVPSKAKEFEEIRDQLFDKDLFMSLFNPSYFFTLHWEKQRAMMLKYVTAPVSKEVLKNLPEAQSEVLERYLKKHSLVDLEKIHKDNKNKQDKAYISAQSRTNTLKEQLMQLTEEKLDIDSIKAELAHIDMQVIELEKQMDTAFEKNQAFNLQAQIRNLQDKIEMSKERWPSLKNEVIEDTCRTCKRPLDEDSVEAVKADKDNRIAEYKAKHNSLVSQRNELKEQLNTIEYIDVTELREQIKELDESGQPLREQVRIYSQYQNLDTQVKSAEADENGILQDLKASIFILDSIKAFRGKEAEMQAEKVQALFTTLSVRLFKQNKGDGEIKPDFEIEMNDKPYRTLSLSEGIRAGLELRDVLSQQSELVTPTFVDNAESITSFKQPNGQLIISRVVAGQELKIEAVSE
B4: Homolog_T8: RecT, Shewanella putrefaciens; SEQ ID NO: 127 (protein, listed as Shewanella putrefaciens)
chain: MQTAQVKLSVPHQQVYQDNFNYLSSQVVGHLVDLNEEIGYLNQIVFNSLSTASPLDVAAPWSVYGLLLNVCRLGLSLNPEKKLAYVMPSWSETGEIIMKLYPGYRGEIAIASNFNVIKNANAVLVYENDHFRIQAATGEIEHFVTSLSIDPRVRGACSGGYCRSVLMDNTIQISYLSIEEMNAIAQNQIEANMGNTPWNSIWRTEMNRVALYRRAAKDWRQLIKATPEIQSALSDTEY
B5: Homolog_T6: RecT, Providencia sp. MGF014; SEQ ID NO: 125 (protein, listed as Providencia sp.)
chain: MSNPPLAQSDLQKTQGTEVKVKTKDQQLIQFINQPSMKAQLAAALPRHMTPDRMIRIVTTEIRKTPALATCDMQSFVGAVVQCSQLGLEPGNALGHAYLLPFGNGKAKSGQSNVQLIIGYRGMIDLARRSNQIISISARTVRQGDNFHFEYGLNEDLTHTPSENEDSPITHVYAVARLKDGGVQFEVMTYNQVEKVRASSKAGQNGPWVSHWEEMAKKTVIRRLFKYLPVSIEMQKAVVLDEKAEANVDQENATIFEGEYEEVGTDGN
B6: Homolog_E7: RecE, Providencia alcalifaciens DSM 30120; SEQ ID NO: 144 (protein, listed as Providencia alcalifaciens)
chain: MNEGIYYDISNEDYHHGLGISKSQLDLIDESPADFIWHRDAPVDNEKTKALDFGTALHCLLLEPDEFQKRFRIAPEVNRRTNAGKEQEKEFLEMCEKENITPITNEDNRKLSLMKDSAMAHPIARWCLEAKGIAESSIYWKDKDTDILCRCRPDKLIEEHHWLVDVKSTADIQKFERSMYEYRYHVQDSFYSDGYKSLTGEMPVFVFLAVSTVINCGRYPVRVFVLDEQAKSVGRITYKQNLFTYAECLKTDEWAGIRTLSLPSWAKELKHEHTTAS
B7: Homolog_T7: RecT, Providencia alcalifaciens DSM 30120; SEQ ID NO: 143 (protein, listed as Providencia alcalifaciens)
chain: MKAQLAAALPKHITSDRMIRIVSTEIRKTPSLANCDIQSFIGAVVQCSQLGLEPGNALGHAYLLPFGNGKSDNGKSNVQLIIGYRGMIDLARRSGQIISISARTVRQGDNFHFEYGLNENLTHIPEGNEDSPITHVYAVARLKDEGVQFEVMTYNQIEKVRDSSKAGKNGPWVTHWEEMAKKTVIRRLFKYLPVSIEMQKAVILDEKAEANIEQDHSAIFEAEFEEVDSNGN
B8: Homolog_E8: RecE, Shewanella putrefaciens; SEQ ID NO: 128 (protein, listed as Shewanella putrefaciens)
chain: MGTALAQTISLDWQDTIQPAYTASGKPNFLNAQGEIVEGIYTDLPNSVYHALDAHSSTGIKTFAKGRHHYFRQYLSDVCRQRTKQQEYTFDAGTYGHMLVLEPENFHGNFMRNPVPDDFPDIELIESIPQLKAALAKSNLPVSGAKAALIERLYAFDPSLPLFEKMREKAITDYLDLRYAKYLRTDVELDEMATFYGIDTSQTREKKIEEILAISPSQPIWEKLISQHVIDHIVWDDAMRVERSTRAHPKADWLISDGYAELTIIARCPTTGLLLKVRFDWLRNDAIGVDFKTTLSTNPTKFGYQIKDLRYDLQQVFYCYVANLAGIPVKHFCFVATEYKDADNCETFELSHKKVIESTEEMFDLLDEFKEALTSGNWYGHDRSRSTWVIEV
B9: Homolog_T10: RecT, Shigella sonnei; SEQ ID NO: 131 (protein, listed as Shigella sonnei)
chain: MTKQPPIAKADLQKTQENRAPAAIKNNDVISFINQPSMKEQLAAALPRHMTAERMIRIATTEIRKVPALGNCDTMSFVSAIVQCSQLGLEPGSALGHAYLLPFGNKNEKSGKKNVQLIIGYRGMIDLARRSGQIASLSARVVREGDEFNFEFGLDEKLIHRPGENEDAPVTHVYAVARLKDGGTQFEVMTRRQIELVRSQSKAGNNGPWVTHWEEMAKKTAIRRLFKYLPVSIEIQRAVSMDEKEPLTIDPADSSVLTGEYSVIDNSEE
B10: Homolog_T9: RecT, Bacillus sp. MUM 116; SEQ ID NO: 129 (protein, listed as Bacillus sp.)
chain: MSKQLTTVNTQAVVGTFSQAELDTLKQTIAKGTTNEQFALFVQTCANSRLNPFLNHIHCIVYNGKEGATMSLQIAVEGILYLARKTDGYKGIECQLIHENDEFKFDAKSKEVDHQIGFPRGNVIGGYAIAKREGFDDVVVLMESNEVDHMLKGRNGHMWRDWFNDMFKKHIMKRAAKLQYGIEIAEDETVSSGPSVDNIPEYKPQPRKDITPNQDVIDAPPQQPKQDDEAAKLKAARSEVSKKFKKLGIVKEDQTEYVEKHVPGFKGTLSDFIGLSQLLDLNIEAQEAQSADGDLLD

Assays:
HSP90AA1 locus = assay: mKate knock-in gene-editing assay, RecE/RecT homologs, HSP90AA1 locus; format: cell-based, human; conditions: HEK293 cells, MCP fusion, n=3
Method: (§1) Transfection HEK293T cells were seeded into 96-well plates (Corning) 12-24 hours prior to transfection at a density of 30,000 cells/well, and 250 ng of total DNA was transfected per well. HeLa and HepG2 cells were seeded into 48-well plates (Corning) one day prior to transfection at a density of 50,000 and 30,000 cells/well respectively, and 400 ng of total DNA was transfected per well. Transfections were performed with Lipofectamine 3000 (Life Technologies) following the manufacturer's instructions.
(§2) Fluorescence-activated cell sorting (FACS) mKate knock-in efficiency was analyzed on a CytoFLEX flow cytometer (Beckman Coulter; Stanford Stem Cell FACS Core). 72 hours after transfection, cells were washed once with PBS and dissociated with TrypLE Express Enzyme (Thermo Fisher Scientific). Cell suspension was then transferred to a 96-well U-bottom plate (Thermo Fisher Scientific) and centrifuged at 300×G for 5 minutes. After removing the supernatant, pelleted cells were resuspended with 50 μl 4% FBS in PBS, and cells were sorted within 30 minutes of preparation.
(§3) 15 different species of microbes having RecE/RecT proteins were selected for a screen of various RecE and RecT proteins across the microbial kingdom (Table 3). Each protein was codon-optimized and synthesized. As previously described for E. coli RecE/RecT based REDIT systems, each protein was fused via E-XTEN linker to the MCP protein with additional nuclear localization signal. mKate knock-in gene-editing assay was used to measure efficiencies at DYNLT1 locus (FIG. 26A, Table 4) and HSP90AA1 locus (FIG. 26B, Table 4).

DYNLT1 locus = assay: mKate knock-in gene-editing assay, RecE/RecT homologs, DYNLT1 locus; format: cell-based, human; conditions: HEK293 cells, MCP fusion, n=3
Method: as §1, §2, §3

Row | Molecule | Mean mKate+ (%), HSP90AA1 (HSP90AA1 locus) [%] | Mean mKate+ (%), DYNLT1 (DYNLT1 locus) [%]
1 | B1 | 6.0233 | 4.4667
2 | B2 | 5.9300 | 5.4100
3 | B3 | 5.6900 | 5.3233
4 | B4 | 5.7133 | 5.0400
5 | B5 | 6.2500 | 9.0533
6 | B6 | 5.7367 | 4.4733
7 | B7 | 5.3700 | 5.6467
8 | B8 | 7.0533 | 4.6567
9 | B9 | 5.5900 | 8.5333
10 | B10 | 6.2000 | 8.1300
